{"source": "patent US5770430", "about": "“Cellular injury response element and uses thereof” (Research Development Foundation)", "molecular_target": "Sp1 (Homo sapiens, UniProt P08047 P08047:2-785)", "sequence (P08047 2-785, one chain of several)": "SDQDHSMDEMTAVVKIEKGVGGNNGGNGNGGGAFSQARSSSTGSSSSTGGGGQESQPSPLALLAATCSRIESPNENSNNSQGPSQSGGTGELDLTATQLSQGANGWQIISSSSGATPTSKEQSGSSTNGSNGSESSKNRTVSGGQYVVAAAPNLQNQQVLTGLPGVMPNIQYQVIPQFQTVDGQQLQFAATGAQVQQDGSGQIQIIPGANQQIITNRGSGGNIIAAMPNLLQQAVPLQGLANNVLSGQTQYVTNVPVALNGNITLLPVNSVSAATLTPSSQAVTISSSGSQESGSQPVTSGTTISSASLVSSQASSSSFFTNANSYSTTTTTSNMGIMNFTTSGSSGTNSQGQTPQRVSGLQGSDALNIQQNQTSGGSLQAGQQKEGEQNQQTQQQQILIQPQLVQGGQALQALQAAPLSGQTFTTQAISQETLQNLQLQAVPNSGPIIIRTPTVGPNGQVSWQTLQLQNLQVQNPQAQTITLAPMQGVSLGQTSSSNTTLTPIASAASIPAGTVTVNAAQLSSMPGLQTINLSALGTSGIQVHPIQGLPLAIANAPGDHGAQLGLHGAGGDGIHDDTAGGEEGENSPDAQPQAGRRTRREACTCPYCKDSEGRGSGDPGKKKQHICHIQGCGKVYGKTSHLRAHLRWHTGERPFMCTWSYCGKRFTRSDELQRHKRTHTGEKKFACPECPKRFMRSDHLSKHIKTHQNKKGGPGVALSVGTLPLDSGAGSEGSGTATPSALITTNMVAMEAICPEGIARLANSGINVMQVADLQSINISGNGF", "assay": "EMSA; poly dI/dC, Mg, Zn, room temperature", "settings": "label: 32P", "protocol": "50,000 CPM of the cellular injury response element, 1 μg poly dI/dC, 10 μg nuclear extract or 2 footprinting units of human Sp1 protein (Promega, Madison, Wis.) were suspended in 12.5 mM HEPES, pH 7.8, 50 mM KCl, 6.25 mM MgCl_2, 5 μM ZnSO_4, 10% glycerol, and 0.05% Nonidet P-40 and incubated for 30 minutes at room temperature. The bands were separated on a 4% polyacrylamide/0.5 X TBE (45 mM Tris-borate, […]) gel, dried and were visualized using the Molecular Imager System (Bio-Rad, Hercules, Calif.). Supershift assays were performed as above with the addition of […] anti-Sp1 antibody (PEP2, Santa Cruz Biotechnology, Inc.) or non-specific rabbit antibody to the reaction mixture after the 30 minute incubation and incubating for an additional 30 minutes.\nNuclear extracts were incubated with ^32P-labeled cellular injury response element and separated on a 0.5X TBE/4% polyacrylamide gel. […] However, no shift was observed when nuclear extracts were incubated with the Sp 1-mutant cellular injury response element (labeled A in FIGS. 7 and 8; a non-specifically shifted band is labeled A in both FIGS. 7 and 8). Thus, the binding of the protein responsible for the gel shift of the cellular injury response element is dependent upon the presence of functional Sp1 site within the cellular injury response element."}
{"binder": "CIRE (GADD153 -74 to -35) (dsDNA) DNA 1: AGGCTCCTGGGTCCCGCCCCCCAAAAGAGGGGACGGGCC DNA 2: GGCCCGTCCCCTCTTTTGGGGGGCGGGACCCAGGAGCCT", "values": [{"measurement": "binding result", "value": "binds"}]}
